Measurements as given in PMC6344521.

T1: nucleoprotein (NP) of influenza A, prototype human isolate A/Wilson-Smith/1933 (influenza A virus (strain A/Wilson-Smith/1933)), P15682
T1 chain: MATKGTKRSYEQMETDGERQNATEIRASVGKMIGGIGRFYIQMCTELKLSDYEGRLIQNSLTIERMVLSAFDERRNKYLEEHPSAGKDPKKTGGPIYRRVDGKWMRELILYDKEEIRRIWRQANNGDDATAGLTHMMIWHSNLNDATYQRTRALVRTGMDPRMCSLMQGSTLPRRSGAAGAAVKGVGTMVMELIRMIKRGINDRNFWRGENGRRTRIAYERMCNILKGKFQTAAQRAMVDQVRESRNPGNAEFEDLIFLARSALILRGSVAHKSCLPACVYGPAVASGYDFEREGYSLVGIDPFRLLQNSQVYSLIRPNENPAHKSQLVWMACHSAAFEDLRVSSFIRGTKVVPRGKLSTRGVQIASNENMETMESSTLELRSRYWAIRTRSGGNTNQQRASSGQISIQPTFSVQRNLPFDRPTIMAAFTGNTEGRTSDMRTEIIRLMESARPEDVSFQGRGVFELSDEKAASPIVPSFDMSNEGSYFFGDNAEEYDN


Tests used:
[1] = molecular target: OVX836, NP of influenza A (A/Wilson-Smith/1933) fused through its C-terminus to the oligomerization domain OVX313 (influenza A virus (strain A/Wilson-Smith/1933)); assay: reversed-phase chromatography (RP-UHPLC)
[2] = molecular target: OVX836, NP of influenza A (A/Wilson-Smith/1933) fused through its C-terminus to the oligomerization domain OVX313 (influenza A virus (strain A/Wilson-Smith/1933)); assay: SEC
[3] = molecular target: T1, nucleoprotein (NP) of influenza A, …; assay: SEC; conditions: remark: other sources report otherwise

| Molecule | stoichiometry N [1] | stoichiometry N [2] | stoichiometry N [3] |
| --- | --- | --- | --- |
| OVX836, NP of influenza A (A/Wilson-Smith/1933) fused through its C-terminus to the oligomerization domain OVX313 | 7 | 7 | – |
| nucleoprotein (NP) of influenza A, prototype human isolate A/Wilson-Smith/1933, P15682 1-498 (natural protein) MATKGTKRSYEQMETDGERQNATEIRASVGKMIGGIGRFYIQMCTELKLSDYEGRLIQNSLTIERMVLSAFDERRNKYLEEHPSAGKDPKKTGGPIYRRVDGKWMRELILYDKEEIRRIWRQANNGDDATAGLTHMMIWHSNLNDATYQRTRALVRTGMDPRMCSLMQGSTLPRRSGAAGAAVKGVGTMVMELIRMIKRGINDRNFWRGENGRRTRIAYERMCNILKGKFQTAAQRAMVDQVRESRNPGNAEFEDLIFLARSALILRGSVAHKSCLPACVYGPAVASGYDFEREGYSLVGIDPFRLLQNSQVYSLIRPNENPAHKSQLVWMACHSAAFEDLRVSSFIRGTKVVPRGKLSTRGVQIASNENMETMESSTLELRSRYWAIRTRSGGNTNQQRASSGQISIQPTFSVQRNLPFDRPTIMAAFTGNTEGRTSDMRTEIIRLMESARPEDVSFQGRGVFELSDEKAASPIVPSFDMSNEGSYFFGDNAEEYDN | – | – | 3 |
